pKi: −log10 of the molar value. Read-outs that look alike come from different tables or passages of the source.
Legend:
plasma kallikrein (pKA) = plasma kallikrein (pKA) (Homo sapiens, UniProt P03952); assay: Inhibition of human plasma kallikrein (measured Ki taken as KD), yeast-expressed purified proteins; assay type: biochemical; set-up: Hydrolysis of the Arg371 -Ile372 peptide bond yields a two-chain proteinase joined by a disulfide bond; details: for pKi: preliminary measurements
Description: (§1) A second appropriate method of measuring KD is to measure the inhibitor activity against the enzyme. […] For the proteins of this invention, having KD in the range 5 nM to 50 pM, nanograms to micrograms of inhibitor suffice. When using this method, the competition between the inhibitor and the enzyme substrate can give a measured Ki that is higher than the true Ki. Measurement reported here are not so corrected because the correction would be very small and the any correction would reduce the Ki. Here, we use the measured Ki as a direct measure of KD.
The three isolates KKII/3#6, KK2/#11, and KK2/#13 were recloned into a yeast expression vector. The yeast expression vector is derived from pMFalpha8 (KURJ82 and MIYA85). The LACI variant genes were fused to part of the matα 1 gene, generating a hybrid gene consisting of the matα 1 promoter-signal peptide and leader sequence-fused to the LACI variant. Note that the correctly processed LACI-K1 variant protein should be as detailed in Table 2 with the addition of residues glu-ala-ala-glu (SEQ ID NO: 70) to the N-terminal met (residue 1 in Table 2). Expression in S. cerevisiae gave acceptable yield typical of this system.

human plasma Kallikrein = target: T1, human plasma Kallikrein (Homo sapiens, UniProt P03952); assay: Binding of display-phage to kallikrein-agarose beads (Table 8); details: for Relative Binding: fraction bound relative to the parental display-phage, LACI-K1; for Fraction Bound: pfu's eluted as a fraction of the input number (10^10 pfu's)
T1 construct: Hydrolysis of the Arg371 -Ile372 peptide bond yields a two-chain proteinase joined by a disulfide bond; purchased Calbiochem 420302
T1 sequence (P03952 391-638 limits assumed): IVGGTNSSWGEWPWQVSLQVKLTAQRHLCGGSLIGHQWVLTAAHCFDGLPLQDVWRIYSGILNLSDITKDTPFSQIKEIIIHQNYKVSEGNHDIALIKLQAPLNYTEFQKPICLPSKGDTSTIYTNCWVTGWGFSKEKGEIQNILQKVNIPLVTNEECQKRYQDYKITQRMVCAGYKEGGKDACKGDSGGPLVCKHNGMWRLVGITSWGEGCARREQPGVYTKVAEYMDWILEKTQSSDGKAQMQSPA
T1 sequence (P03952 20-390 partner limits assumed): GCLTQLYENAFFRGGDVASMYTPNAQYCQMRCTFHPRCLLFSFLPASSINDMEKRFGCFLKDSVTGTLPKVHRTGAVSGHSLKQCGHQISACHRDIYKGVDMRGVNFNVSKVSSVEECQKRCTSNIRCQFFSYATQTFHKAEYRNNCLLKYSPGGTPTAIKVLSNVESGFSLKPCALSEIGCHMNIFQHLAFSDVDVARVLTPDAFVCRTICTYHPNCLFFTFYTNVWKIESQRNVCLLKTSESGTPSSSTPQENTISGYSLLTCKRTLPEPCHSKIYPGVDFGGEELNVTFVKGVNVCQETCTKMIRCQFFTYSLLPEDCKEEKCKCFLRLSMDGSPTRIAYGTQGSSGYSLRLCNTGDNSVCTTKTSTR
Description: This method is highly sensitive because the genetic packages can be amplified. We obtain at least semiquantitative values for the binding constants by use of a pH step gradient. […] Any other suitable method of measuring protein binding may be used.
The overall scheme for selecting a LACI-K1 variant to bind to a given protease involves incubation of the phage-display library with the kallikrein-beads of interest in a buffered solution (PBS containing 1 mg/ml BSA) followed by washing away the unbound and poorly retained display-phage variant with PBS containing 0.1% Tween 20. Kallikrein beads were made by coupling human plasma Kallikrein (Calbiochem, San Diego, Calif., # 420302) to agarose beads using Reactigel (6x) (Pierce, Rockford, II, #202606). The more strongly bound display-phage are eluted with a low pH elution buffer, typically citrate buffer (pH 2.0) containing 1 mg/ml BSA, which is immediately neutralized with Tris buffer to pH 7.5. This process constitutes a single round of selection.

plasmin = plasmin (Homo sapiens, UniProt P00747); assay: Inhibition of plasmin (Ki); assay type: biochemical
Chain of plasmin (P00747 581-810 limits assumed): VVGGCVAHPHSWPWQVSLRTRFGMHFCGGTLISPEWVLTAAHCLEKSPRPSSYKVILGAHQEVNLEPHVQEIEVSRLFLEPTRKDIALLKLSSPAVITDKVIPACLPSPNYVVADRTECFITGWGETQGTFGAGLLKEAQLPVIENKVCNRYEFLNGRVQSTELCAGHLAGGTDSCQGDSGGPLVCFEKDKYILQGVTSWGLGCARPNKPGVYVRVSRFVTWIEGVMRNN
Chain of plasmin (P00747 97-580 partner limits assumed): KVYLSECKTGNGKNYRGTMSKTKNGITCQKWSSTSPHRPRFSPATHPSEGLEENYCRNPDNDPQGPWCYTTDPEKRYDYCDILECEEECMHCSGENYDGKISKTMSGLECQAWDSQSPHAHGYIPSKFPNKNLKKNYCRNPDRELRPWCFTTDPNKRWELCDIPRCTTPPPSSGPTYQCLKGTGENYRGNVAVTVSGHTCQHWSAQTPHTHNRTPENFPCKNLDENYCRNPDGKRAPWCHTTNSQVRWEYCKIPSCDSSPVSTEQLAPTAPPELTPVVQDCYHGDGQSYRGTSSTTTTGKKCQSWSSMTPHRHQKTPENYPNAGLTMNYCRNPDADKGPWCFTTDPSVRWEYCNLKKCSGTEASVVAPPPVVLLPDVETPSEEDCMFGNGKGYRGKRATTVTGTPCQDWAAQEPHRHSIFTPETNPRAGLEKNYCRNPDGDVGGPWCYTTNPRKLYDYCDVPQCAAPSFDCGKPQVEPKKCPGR
Description: as §1

[1] = about 840 mg, 80 open-heart surgery patients, FRAE89; cited from earlier work
[2] = not corrected for substrate competition, read-out: Ki for plasma kallikrein (pKA)
[3] = stated as 'probably less than', read-out: Ki for plasma kallikrein (pKA), probable bound

Chain of plasma kallikrein (pKA) (P03952 391-638 limits assumed): as the sequence (P03952 391-638 limits assumed) above
Chain of plasma kallikrein (pKA) (P03952 20-390 partner limits assumed): as the sequence (P03952 20-390 partner limits assumed) above

Row | pKi (plasma kallikrein (pKA); [2]) | pKi (plasma kallikrein (pKA); [3]) | Relative Binding (human plasma Kallikrein) | Fraction Bound (human plasma Kallikrein) | Substance | also measured
1 | > 9.52 | > 10.00 | – | – | KK2/#11: second-library LACI-K1 variant Kunitz domain, SEQ ID NO. 22 (MHSFCAFKADDGPCRAAHPRWFFNIFTRQCEEFSYGGCGGNQNRFESLEECKKMCTRD) | –
2 | > 9.52 | > 10.00 | – | – | KK2/#13: second-library LACI-K1 variant Kunitz domain, SEQ ID NO. 19 (MHSFCAFKADGGRCRGAHPRWFFNIFTRQCEEFSYGGCGGNQNRFESLEECKKMCTRD) | –
3 | – | – | 761 | 3.2 × 10^-3 | KKI/3(a): LACI-K1 variant Kunitz domain, phase I selectant, SEQ ID NO. 15 (MHSFCAFKADDGRCKGAHLRFFFNIFTRQCEEFIYGGCEGNQNRFESLEECKKMCTRD) | –
4 | – | – | 524 | 2.2 × 10^-3 | KKI/3(b): LACI-K1 variant Kunitz domain, phase I selectant, SEQ ID NO. 16 (MHSFCAFKADDGPCKAIHLRFFFNIFTRQCEEFIYGGCEGNQNRFESLEECKKMCTRD) | –
5 | – | – | 928 | 3.9 × 10^-3 | KKII/3#5: LACI-K1 variant Kunitz domain, SEQ ID NO. 9 (MHSFCAFKADDGHCKASLPRFFFNIFTRQCEEFIYGGCGGNQNRFESLEECKKMCTRD) | –
6 | ~9.52 | > 9.30 | 2071 | 8.7 × 10^-3 | KKII/3#6: lead pKA inhibitor, LACI-K1 variant Kunitz domain, SEQ ID NO. 10 (MHSFCAFKADDGHCKANHQRFFFNIFTRQCEEFSYGGCGGNQNRFESLEECKKMCTRD) | pKi (plasmin): 5.00; Ki for kallikrein relative to wild-type LACI and BPTI (times) (plasma kallikrein (pKA); versus both wild-type LACI and BPTI): over 100 times
7 | – | – | – | 4.2 × 10^-6 | LACI-K1: first Kunitz domain of human LACI (residues 50 to 107), parental molecule, SEQ ID NO. 3 (MHSFCAFKADDGPCKAIMKRFFFNIFTRQCEEFIYGGCEGNQNRFESLEECKKMCTRD) [reference compound] | –

Row | Substance | pKi (plasma kallikrein (pKA); [2]) | pKi (plasma kallikrein (pKA); [3]) | Relative Binding (human plasma Kallikrein) | Fraction Bound (human plasma Kallikrein) | also measured
8 | bovine pancreatic trypsin inhibitor [BPTI] | – | – | – | 2.5 × 10^-5 | decrease of mean amount transfused [1]: 74%

— patent publication US5795865A, “Kallikrein-inhibiting "kunitz domain" proteins and analogues thereof” (Dyax Corp., priority 1996, dated 1998)
